Assay results taken from article PMC3971960 (Biochemistry, 2014).

How the values were obtained:
MALDI mass spectrometry = biological target: the molecule itself; assay: MALDI mass spectrometry
AUC = biological target: the molecule itself; assay: AUC
MecI = biological target: T1, MecI (Staphylococcus aureus NRS70 (N315), UniProt P68261 1-123); assay: fluorescence anisotropy
T1 sequence: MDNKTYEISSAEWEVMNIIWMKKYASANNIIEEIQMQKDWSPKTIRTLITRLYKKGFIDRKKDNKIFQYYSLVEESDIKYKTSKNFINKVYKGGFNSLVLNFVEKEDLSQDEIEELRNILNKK

BlaI = biological target: T2, BlaI (Staphylococcus aureus, UniProt P0A042 1-126); assay: fluorescence anisotropy
T2 sequence: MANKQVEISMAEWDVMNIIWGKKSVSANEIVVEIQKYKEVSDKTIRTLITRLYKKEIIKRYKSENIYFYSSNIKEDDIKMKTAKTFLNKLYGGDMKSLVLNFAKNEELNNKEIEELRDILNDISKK

B1: MecI (natural protein, S. aureus NRS70 (N315), UniProt P68261 1-123, looked up)
chain: MDNKTYEISSAEWEVMNIIWMKKYASANNIIEEIQMQKDWSPKTIRTLITRLYKKGFIDRKKDNKIFQYYSLVEESDIKYKTSKNFINKVYKGGFNSLVLNFVEKEDLSQDEIEELRNILNKK
stoichiometry N (MALDI mass spectrometry): 5 | Kd (AUC): 300 ± 30 nM | stoichiometry N (AUC): 2

B2: mec dsDNA (mec operator) (dsDNA)
DNA 1: ATATAAGACTACATTTGTAGTATATTACAAATGTAGTATTT
DNA 2: AAATACTACATTTGTAATATACTACAAATGTAGTCTTATAT
Kd (MecI): < 10 nM | Kd (BlaI): 13 ± 6 nM
